Reference: the supplement of paper PMC10266784

B1: library; numbered along this chain (parent)
chain: MAAAAAAAAEQQSSNGPVKKSMREKAVERRSVNKEHNSNFKAGYIPIDEDRLHKTGLRGRKGNLAICVIILLFILAVINLIITLVIWAVIRIGPNGCDSMEFHESGLLRFKQVSDMGVIHPLYKSTVGGRRNENLVITGNNQPIVFQQGTTKLSVENNKTSITSDIGMQFFDPRTQNILFSTDYETHEFHLPSGVKSLNVQKASTERITSNATSDLNIKVDGRAIVRGNEGVFIMGKTIEFHMGGNMELKAENSIILNGSVMVSTTRLPSSSSGDQLGSGDWVRYKLCMCADGTLFKVQVTSQNMGCQISDNPCGNTH

Variants of: B1
Experiment: SGCB cell-surface expression functional score (HA stain, bin4 vs bin1, normalised to synonymous) (log10 ratio); higher = more cell-surface SGCB (functional)
Procedure, shortened: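 Sorting and sequencing yield the functional score, defined as the log ratio of a variant's highest-bin frequency to its lowest-bin frequency, with the median taken over codons and replicate transductions. The libraries, codon-saturation sets of HA-tagged, YFP-fused human beta-sarcoglycan, went into HEK293 cells stably carrying alpha-, gamma- and delta-sarcoglycan by duplicate lentiviral transduction at MOI <0.1. Cells were stained on ice with Alexa Fluor 647 anti-HA, fixed and split into four 5% intensity bins, and synonymous variants were scaled per section to mean 0, SD 0.5.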

Variant	SGCB cell-surface expression functional score (log10)
MAAAAAAAAEQQSSNGPVKKSMREKAVERRSVNKEHKSNFKAGYIPIDEDRLHKTGLRGRKGNLAICVIILLFILAVINLIITLVIWAVIRIGPNGCDSMEFHESGLLRFKQVSDMGVIHPLYKSTVGGRRNENLVITGNNQPIVFQQGTTKLSVENNKTSITSDIGMQFFDPRTQNILFSTDYETHEFHLPSGVKSLNVQKASTERITSNATSDLNIKVDGRAIVRGNEGVFIMGKTIEFHMGGNMELKAENSIILNGSVMVSTTRLPSSSSGDQLGSGDWVRYKLCMCADGTLFKVQVTSQNMGCQISDNPCGNTH [N37K]	-0.39
MAAAAAAAAEQQSSNGPVKKSMREKAVERRSVNKEHVSNFKAGYIPIDEDRLHKTGLRGRKGNLAICVIILLFILAVINLIITLVIWAVIRIGPNGCDSMEFHESGLLRFKQVSDMGVIHPLYKSTVGGRRNENLVITGNNQPIVFQQGTTKLSVENNKTSITSDIGMQFFDPRTQNILFSTDYETHEFHLPSGVKSLNVQKASTERITSNATSDLNIKVDGRAIVRGNEGVFIMGKTIEFHMGGNMELKAENSIILNGSVMVSTTRLPSSSSGDQLGSGDWVRYKLCMCADGTLFKVQVTSQNMGCQISDNPCGNTH [N37V]	-0.13
MAAAAAAAAEQQSSNGPVKKSMREKAVERRSVNKEHMSNFKAGYIPIDEDRLHKTGLRGRKGNLAICVIILLFILAVINLIITLVIWAVIRIGPNGCDSMEFHESGLLRFKQVSDMGVIHPLYKSTVGGRRNENLVITGNNQPIVFQQGTTKLSVENNKTSITSDIGMQFFDPRTQNILFSTDYETHEFHLPSGVKSLNVQKASTERITSNATSDLNIKVDGRAIVRGNEGVFIMGKTIEFHMGGNMELKAENSIILNGSVMVSTTRLPSSSSGDQLGSGDWVRYKLCMCADGTLFKVQVTSQNMGCQISDNPCGNTH [N37M]	-0.37
MAAAAAAAAEQQSSNGPVKKSMREKAVERRSVNKEHSSNFKAGYIPIDEDRLHKTGLRGRKGNLAICVIILLFILAVINLIITLVIWAVIRIGPNGCDSMEFHESGLLRFKQVSDMGVIHPLYKSTVGGRRNENLVITGNNQPIVFQQGTTKLSVENNKTSITSDIGMQFFDPRTQNILFSTDYETHEFHLPSGVKSLNVQKASTERITSNATSDLNIKVDGRAIVRGNEGVFIMGKTIEFHMGGNMELKAENSIILNGSVMVSTTRLPSSSSGDQLGSGDWVRYKLCMCADGTLFKVQVTSQNMGCQISDNPCGNTH [N37S]	-0.21
MAAAAAAAAEQQSSNGPVKKSMREKAVERRSVNKEHLSNFKAGYIPIDEDRLHKTGLRGRKGNLAICVIILLFILAVINLIITLVIWAVIRIGPNGCDSMEFHESGLLRFKQVSDMGVIHPLYKSTVGGRRNENLVITGNNQPIVFQQGTTKLSVENNKTSITSDIGMQFFDPRTQNILFSTDYETHEFHLPSGVKSLNVQKASTERITSNATSDLNIKVDGRAIVRGNEGVFIMGKTIEFHMGGNMELKAENSIILNGSVMVSTTRLPSSSSGDQLGSGDWVRYKLCMCADGTLFKVQVTSQNMGCQISDNPCGNTH [N37L]	0.05
MAAAAAAAAEQQSSNGPVKKSMREKAVERRSVNKEHYSNFKAGYIPIDEDRLHKTGLRGRKGNLAICVIILLFILAVINLIITLVIWAVIRIGPNGCDSMEFHESGLLRFKQVSDMGVIHPLYKSTVGGRRNENLVITGNNQPIVFQQGTTKLSVENNKTSITSDIGMQFFDPRTQNILFSTDYETHEFHLPSGVKSLNVQKASTERITSNATSDLNIKVDGRAIVRGNEGVFIMGKTIEFHMGGNMELKAENSIILNGSVMVSTTRLPSSSSGDQLGSGDWVRYKLCMCADGTLFKVQVTSQNMGCQISDNPCGNTH [N37Y]	-0.46
MAAAAAAAAEQQSSNGPVKKSMREKAVERRSVNKEHWSNFKAGYIPIDEDRLHKTGLRGRKGNLAICVIILLFILAVINLIITLVIWAVIRIGPNGCDSMEFHESGLLRFKQVSDMGVIHPLYKSTVGGRRNENLVITGNNQPIVFQQGTTKLSVENNKTSITSDIGMQFFDPRTQNILFSTDYETHEFHLPSGVKSLNVQKASTERITSNATSDLNIKVDGRAIVRGNEGVFIMGKTIEFHMGGNMELKAENSIILNGSVMVSTTRLPSSSSGDQLGSGDWVRYKLCMCADGTLFKVQVTSQNMGCQISDNPCGNTH [N37W]	-0.53
MAAAAAAAAEQQSSNGPVKKSMREKAVERRSVNKEHISNFKAGYIPIDEDRLHKTGLRGRKGNLAICVIILLFILAVINLIITLVIWAVIRIGPNGCDSMEFHESGLLRFKQVSDMGVIHPLYKSTVGGRRNENLVITGNNQPIVFQQGTTKLSVENNKTSITSDIGMQFFDPRTQNILFSTDYETHEFHLPSGVKSLNVQKASTERITSNATSDLNIKVDGRAIVRGNEGVFIMGKTIEFHMGGNMELKAENSIILNGSVMVSTTRLPSSSSGDQLGSGDWVRYKLCMCADGTLFKVQVTSQNMGCQISDNPCGNTH [N37I]	0.02
MAAAAAAAAEQQSSNGPVKKSMREKAVERRSVNKEHQSNFKAGYIPIDEDRLHKTGLRGRKGNLAICVIILLFILAVINLIITLVIWAVIRIGPNGCDSMEFHESGLLRFKQVSDMGVIHPLYKSTVGGRRNENLVITGNNQPIVFQQGTTKLSVENNKTSITSDIGMQFFDPRTQNILFSTDYETHEFHLPSGVKSLNVQKASTERITSNATSDLNIKVDGRAIVRGNEGVFIMGKTIEFHMGGNMELKAENSIILNGSVMVSTTRLPSSSSGDQLGSGDWVRYKLCMCADGTLFKVQVTSQNMGCQISDNPCGNTH [N37Q]	-0.21
